Reference: article PMC9834170 (Cell Reports Medicine, 2023)

B1: nanobody R14 (VHH)
VHH: QVQLQESGGGLVQPGGSLRLSCAVSGFTLDYYAIGWFRQAPGKEREGVSCISSSDGSTSYADSVKGRFTISRDNAKNTVYLQMNSLKPEDTALYYCAATPATYYSGRYYYQCPAGGMDYWGQGTQVTVSS
B2: nanobody S43 (VHH)
VHH: QVQLQESGGGLVQPGGSLRLTCAPSGFTLDYYAIGWFRQAPGKEREGVSCISSNNSTYYADSVKGRFTISRDNAKNTVYLQMNSLKPEDTAVYYCAAEPDYSGVYYYTCGWTDFGSWGQGTQVTVSS

Legend:
[1] = molecular target: T1, SARS-CoV-2 prototype RBD with human IgG Fc-tag (SARS-CoV-2, UniProt P0DTC2); experiment: cell-based or functional assay
[2] = molecular target: T1, SARS-CoV-2 prototype RBD with human IgG …; experiment: SPR

| Binder | IC50 of neutralization of live SARS-CoV-2 in Vero cells (blocks RBD with hACE2) [1] [nM] | Kd [2] [nM] | IC50 of neutralization of live SARS-CoV-2 in Vero cells (blocks S with ACE2) [1] [nM] |
| --- | --- | --- | --- |
| B1 | 1.3 |  |  |
| B2 |  | 0.18 | 40.7 |
